Measured values: patent US12123876B2, “Antibody binding to HEG1 and use of the antibody for detection and treatment of mesothelioma” (Kanagawa Prefectural Hospital Organization, priority 2016, dated 2024)

How the values were obtained:
[1] = test system: HEG1 protein on the surface of ACC-MESO4 cells; assay: Flow cytometry of ACC-MESO4 cells with antibody; type: cell-based, human; details: FITC-labeled anti-mouse IgG, flow cytometer
Experimental: First, ACC-MESO4 was cultured, and cells adhering to the culture dish were peeled off with a scraper. The cells peeled off were reacted with the SKM9-2 antibody, and then treated with FITC-labeled anti-mouse IgG, and analyzed by using a flow cytometer. […] If the SKM9-2 antibody binds to the extracellular region of HEG1 protein, cells are to be FITC-labeled and thus fluorescence would be observed in flow cytometry.

[2] = test system: Lung carcinoma, other carcinomas, soft tissue sarcoma, bone sarcoma; assay: Immunohistological staining of other carcinomas and sarcomas (detection specificity to mesothelioma); design: species or system human
Experimental: (§1) AMeX-fixed cell precipitates or formalin-fixed tissues were paraffin-embedded to prepare thin sections. Each of the sections was fixed to a microscope slide, and subjected to deparaffinization and dehydration with xylene and ethanol, followed by activation of an antigen under different conditions. Each section was treated with 3% hydrogen peroxide for 5 minutes to deactivate endogenous peroxidase, and then washed with PBS and blocked with 0.5% casein for 10 minutes. After 100 μL of a solution containing a primary antibody was added to each section and treated at room temperature for 2 hours, the section was washed with PBS and allowed to develop color by using a Histofine Simple Stain MAX-PO (Multi) ([…] BIOSCIENCE INC.), Ventana ultraView DAB universal kit (Roche Diagnostics K. K.), or the EnVision+kits. Each section was stained with hematoxylin and then dehydrated, and encapsulated with Malinol (MUTO PURE CHEMICALS CO., LTD.) to observe under a microscope. The conditions for activation of an antigen were as follows: at 98° C. for 40 minutes for calretinin, mesothelin, and the SKM9-2 antigen; and at 95° C. for 64 minutes for cytokeratin 5/6 (CK5/6), podoplanin, and Wilms' tumor gene product 1 (WT-1). The following activation solutions were used: 10 mM Tris buffer (pH 9.0) containing 1 mM ethylenediamine tetraacetate (EDTA) for calretinin, CK5/6, and podoplanin; and 10 mM citrate buffer (pH 6.0) containing 0.1% TWEEN® 20 (polyethylene glycol sorbitan monolaurate, polyoxyethylenesorbitan monolaurate) for WT-1, mesothelin, and the SKM9-2 antigen. The following primary antibodies were used: a rabbit anti-calretinin polyclonal antibody (PAD:DC8) (Life Technologies Japan Ltd., Tokyo, Japan) for calretinin; a mouse anti-cytokeratin 5,6 monoclonal antibody (D5/16B4) ([…] BIOSCIENCE INC.) for CK5/6; a mouse anti-human mesothelin monoclonal antibody (5B2) (Leica Microsystems, Inc., Bannockburn, IL) for mesothelin; a mouse anti-podoplanin monoclonal antibody (D2-40) (Roche Diagnostics K. K.) for podoplanin; and a mouse anti-human WT-1 monoclonal antibody (6F-H2) (Roche Diagnostics K. K.) for WT-1.
Subsequently, the detection characteristics of the SKM9-2 antibody for other carcinomas were compared with those of other antibodies to confirm the detection specificity to mesothelioma. In this measurement, the detection specificity of each antibody was measured for several carcinomas: gastric carcinoma, colorectal carcinoma, breast carcinoma, ovarian carcinoma, renal cell carcinoma, and urothelial carcinoma, which are more likely to present problems in differential diagnosis of mesothelioma, as “Other carcinomas”; carcinosarcoma, liposarcoma, rhabdomyosarcoma, leiomyosarcoma, fibrosarcoma, synovial sarcoma, gastrointestinal stromal sarcoma (GIST), Ewing's sarcoma, alveolar soft part sarcoma (ASPS), solitary fibrous tumor, malignant peripheral nerve sheath tumor (MPNST), angiosarcoma, epithelioid hemangioendothelioma, epithelioid angiosarcoma, and biphasic synovial sarcoma as “Soft tissue sarcoma”; and chondrosarcoma and osteosarcoma as “Bone sarcoma”.

mesothelioma = assay: Immunohistological staining of mesothelioma tissue sections; design: species or system human
Source text: For the detection of mesothelioma according to the present invention, the antibody according to the present invention or an antigen-binding fragment thereof is contacted with a sample. In the case that a sample separated from a living body such as cells, a tissue, or a tissue section is used, antibody reaction can be detected by using a method well known to those skilled in the art (e.g., an immunohistological staining method). If antibody reaction is then observed (e.g., in the case of a positive result), the subject from whom the sample is derived is likely to be affected with mesothelioma. Whether a result for antibody reaction is positive can be determined in accordance with an Allred Score method (see Allred D C et al., Mod Pathol, 11: 155-168, 1998). In the Allred Score method, for example, a total score is calculated from the following equation: Total score (TS)=Proportion score (PS)+Intensity score (IS) If the total score is 3 or more, then it can be determined that the result for reaction is positive. PS and IS can be determined from the following score tables. Score Tables for Allred Score Method Proportion Score, PS • 0: no staining • 1: a proportion of staining of less than 1% • 2: a proportion of staining of 1% or more and less than 10% • 3: a proportion of staining of 10% or more and less than ⅓ • 4: a proportion of staining of ⅓ or more and less than ⅔ • 5: a proportion of staining of ⅔ or more Intensity score, IS • 0: negative • 1: weak staining • 2: intermediate staining • 3: strong staining
as §1
Hereinafter, cases that the fraction of cells with scores of 1 or more determined in accordance with the Allred Score method was 10% or more in the cell were determined as positive.

B1: SKM9-2 antibody: mouse monoclonal IgG1 kappa antibody binding glycosylated HEG1; heavy chain SEQ ID NO: 2, light chain SEQ ID NO: 4 (antibody, listed as Mus musculus)
heavy: MGWSSIILFLVATTTGVHSQVQLQQPGAELVRPGASVKLSCKASGFSFTTYWITWVKQRPGQGLEWIGMIHPSDSETRLSQTFKDKATLTVDKSSNTAYMQFSSPTSEDSAVYYCVRDFDVWGAGTTVTVSSAKTTPPSVYPLAPGSAAQTNSMVTLGCLVKGYFPEPVTVTWNSGSLSSGVHTFPAVLQSDLYTLSSSVTVPSSTWPSETVTCNVAHPASSTKVDKKIVPRDCGCKPCICTVPEVSSVFIFPPKPKDVLTITLTPKVTCVVVDISKDDPEVQFSWFVDDVEVHTAQTQPREEQFNSTFRSVSELPIMHQDWLNGKEFKCRVNSAAFPAPIEKTISKTKGRPKAPQVYTIPPPKEQMAKDKVSLTCMITDFFPEDITVEWQWNGQPAENYKNTQPIMDTDGSYFVYSKLNVQKSNWEAGNTFTCSVLHEGLHNHHTEKSLSHSPGK
light: MKLPVRLLVLMFWIPASISDVLMTQTPLSLPVSLGDQASISCRSSQNIVHNNGNTYLGWYLQKPGQSPKLLIFKVSNRFSGVPDRFSGSGSGTDFTLKISRVEAEDLGVYYCFQGSHIPRTFGGGTRLEIKRADAAPTVSIFPPSSEQLTSGGASVVCFLNNFYPKDINVKWKIDGSERQNGVLNSWTDQDSKDSTYSMSSTLTLTKDEYERHNSYTCEATHKTSTSPIVKSFNRNEC
[1]
  Binding to cell surface of ACC-MESO4: bind to a HEG1 protein part exposed on the surface of the cell membrane
[2]; chondrosarcoma and osteosarcoma
  Bone sarcoma (positive cases/cases): 0/20
[2]; epithelioid hemangioendothelioma
  Positive cases, epithelioid hemangioendothelioma: 1/6
[2]; gastric, colorectal, breast, ovarian, renal cell, urothelial carcinoma
  Other carcinomas (positive cases/cases): 1/60
[2]; leiomyosarcoma
  Positive cases, leiomyosarcoma: 1/10
[2]; lung carcinoma
  Lung carcinoma (positive cases/cases): 0/98
[2]; mesothelioma specificity over all non-mesothelioma tumors
  Specificity (%): 99.0%
[2]; soft tissue sarcoma
  Soft tissue sarcoma (positive cases/cases): 2/132
[2]; urothelial carcinoma
  Positive cases, urothelial carcinoma: 1/10
mesothelioma; WDPM
  Staining of well-differentiated papillary mesothelioma (WDPM): one in one case
mesothelioma; all mesothelioma types
  Sensitivity (%): 91.3%
mesothelioma; biphasic mesothelioma
  Detection of mesothelioma, Biphasic (positive cases/cases): 12/13
mesothelioma; desmoplastic mesothelioma
  Detection of mesothelioma, Desmoplastic (positive cases/cases): 3/4
mesothelioma; epithelial mesothelioma and sarcomatoid mesothelioma
  Staining of mesothelioma, representative images: successfully stained
mesothelioma; epithelial mesothelioma, positive = fraction of cells with Allred score 1 or more is 10% or more
  Detection of mesothelioma, Epithelial (positive cases/cases): 62/66
mesothelioma; sarcomatoid mesothelioma
  Detection of mesothelioma, Sarcomatoid (positive cases/cases): 7/9
